Substitutions are numbered along the chain they refer to. Values joined by “and” are separate entries in the source; they are usually repeats but may differ in a detail not shown here. Equal values may be shown once. Square brackets hold non-standard residues; d marks the D form. pY = N[C@@H](Cc1ccc(OP(=O)(O)O)cc1)C(=O)O
T1: RasGAP^2(mut)32 (RasGAP^232 with R207A in the N-SH2 domain) (human, UniProt P20936 174-444, R207 to alanine | C236 | C261 | C372 | C402)
T1 construct: p120RasGAP (RASA1), human, UniProt P20936, residues 174-444, mutant of RasGAP^232 in the N-SH2 domain; also called N-SH2 mutant; source: E. coli Rosetta (DE3), purified (same protocol as the WT: Ni-NTA, TEV cleavage, anion exchange, SEC)
T1 sequence (looked up): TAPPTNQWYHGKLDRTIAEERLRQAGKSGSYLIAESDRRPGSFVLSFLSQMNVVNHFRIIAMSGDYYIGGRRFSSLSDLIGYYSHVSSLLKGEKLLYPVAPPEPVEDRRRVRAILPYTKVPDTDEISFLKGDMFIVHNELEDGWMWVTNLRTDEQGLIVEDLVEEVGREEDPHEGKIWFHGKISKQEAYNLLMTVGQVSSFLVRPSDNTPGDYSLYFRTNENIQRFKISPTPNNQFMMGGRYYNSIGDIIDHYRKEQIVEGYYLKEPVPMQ

T2: RasGAP^232(mut) (RasGAP^232 with R398E/K400E in the C-SH2 domain) (human, UniProt P20936 174-444, R398E | K400E | C236 | C261 | C372 | C402)
T2 construct: p120RasGAP (RASA1), human, UniProt P20936, residues 174-444, mutant of RasGAP^232 in the C-SH2 domain; also called C-SH2 mutant; source: E. coli Rosetta (DE3), purified (same protocol as the WT: Ni-NTA, TEV cleavage, anion exchange, SEC)
T2 sequence (looked up): T1 sequence (looked up) with A34R, R225E, K227E

T3: RasGAP^232 (p120RasGAP N-SH2, SH3 and C-SH2 domains, residues 174-444) (human, UniProt P20936 174-444, C236 | C261 | C372 | C402)
T3 construct: p120RasGAP (RASA1), human, UniProt P20936, residues 174-444 (N-SH2, SH3, C-SH2), with four cysteine to serine mutations; also called WT RasGAP^232; apo RasGAP^232; source: E. coli Rosetta (DE3), purified (Ni-NTA, TEV cleavage, anion exchange, SEC)
T3 sequence (looked up): T1 sequence (looked up) with A34R

T4: RasGAP^232 (p120RasGAP SH2-SH3-SH2 region, residues 174-444) (human, C236S (stands in the printed letters) | C261S (stands in the printed letters) | …)
T4 construct: p120RasGAP, human, UniProt P20936, residues 174-444 (N-SH2, SH3, C-SH2) with four cysteine to serine mutations; the methods say that the hexahistidine tag was cut off with TEV, so G-S of the printed stretch probably stay before T174; also called WT RasGAP^232; source: E. coli Rosetta (DE3), purified (Ni-NTA, TEV cleavage, anion exchange, SEC); not shown: His6, N-terminal, cleaved
T4 chain: T1 sequence (looked up) with A34R

T5: RasGAP^2(mut)32 (RasGAP^232 with R207A in the N-SH2 domain) (human, UniProt P20936 174-444, C236S | C261S | C372S | C402S | R207 to alanine)
T5 construct: p120RasGAP, human, UniProt P20936, residues 174-444; Made by site-directed mutagenesis of RasGAP^232, which holds the four cysteine to serine mutations; also called N-SH2 mutant; source: E. coli Rosetta (DE3), purified (same protocol as the WT counterpart); not shown: His6, N-terminal, cleaved
T5 sequence (looked up): T1 sequence (looked up)

T6: RasGAP^232(mut) (RasGAP^232 with R398E/K400E in the C-SH2 domain) (human, UniProt P20936 174-444, C236S | C261S | C372S | C402S | R398E | K400E)
T6 construct: p120RasGAP, human, UniProt P20936, residues 174-444; Made by site-directed mutagenesis of RasGAP^232, which holds the four cysteine to serine mutations; also called C-SH2 mutant; source: E. coli Rosetta (DE3), purified (same protocol as the WT counterpart); not shown: His6, N-terminal, cleaved
T6 sequence (looked up): T1 sequence (looked up) with A34R, R225E, K227E

B1: doubly phosphorylated EphB4 peptide (residues 586-602, pY590 and pY596) (peptide)
peptide: Ac-GTKV[pY]IDPFT[pY]EDPNEA-NH2
SMILES: CC[C@H](C)[C@H](NC(=O)[C@H](Cc1ccc(OP(=O)(O)O)cc1)NC(=O)[C@@H](NC(=O)[C@H](CCCCN)NC(=O)[C@@H](NC(=O)CNC(C)=O)[C@@H](C)O)C(C)C)C(=O)N[C@@H](CC(=O)O)C(=O)N1CCC[C@H]1C(=O)N[C@@H](Cc1ccccc1)C(=O)N[C@H](C(=O)N[C@@H](Cc1ccc(OP(=O)(O)O)cc1)C(=O)N[C@@H](CCC(=O)O)C(=O)N[C@@H](CC(=O)O)C(=O)N1CCC[C@H]1C(=O)N[C@@H](CC(N)=O)C(=O)N[C@@H](CCC(=O)O)C(=O)N[C@@H](C)C(N)=O)[C@@H](C)O
notes: EphB4 juxtamembrane region, UniProt P54760, residues 586-602; also called pYpY EphB4; pYpYEphB4; source: synthetic peptide, bought: GenScript
B2: doubly phosphorylated Dok1 peptide (residues 291-322) (peptide)
peptide: Ac-SPPAL[pY]AEPLDSLRIAPCPSQDSL[pY]SDPLDST-NH2
SMILES: CC[C@H](C)[C@H](NC(=O)[C@H](CCCNC(=N)N)NC(=O)[C@H](CC(C)C)NC(=O)[C@H](CO)NC(=O)[C@H](CC(=O)O)NC(=O)[C@H](CC(C)C)NC(=O)[C@@H]1CCCN1C(=O)[C@H](CCC(=O)O)NC(=O)[C@H](C)NC(=O)[C@H](Cc1ccc(OP(=O)(O)O)cc1)NC(=O)[C@H](CC(C)C)NC(=O)[C@H](C)NC(=O)[C@@H]1CCCN1C(=O)[C@@H]1CCCN1C(=O)[C@H](CO)NC(C)=O)C(=O)N[C@@H](C)C(=O)N1CCC[C@H]1C(=O)N[C@@H](CS)C(=O)N1CCC[C@H]1C(=O)N[C@@H](CO)C(=O)N[C@@H](CCC(N)=O)C(=O)N[C@@H](CC(=O)O)C(=O)N[C@@H](CO)C(=O)N[C@@H](CC(C)C)C(=O)N[C@@H](Cc1ccc(OP(=O)(O)O)cc1)C(=O)N[C@@H](CO)C(=O)N[C@@H](CC(=O)O)C(=O)N1CCC[C@H]1C(=O)N[C@@H](CC(C)C)C(=O)N[C@@H](CC(=O)O)C(=O)N[C@@H](CO)C(=O)N[C@H](C(N)=O)[C@@H](C)O
notes: Dok1, UniProt Q99704, residues 291-322; also called pYpY Dok1; pYpYDok1; source: synthetic peptide, bought: GenScript
B3: doubly phosphorylated EphB4 peptide (residues 586-602) (peptide)
peptide: Ac-GTKV[pY]IDPFT[pY]EDPNEA-NH2
SMILES: CC[C@H](C)[C@H](NC(=O)[C@H](Cc1ccc(OP(=O)(O)O)cc1)NC(=O)[C@@H](NC(=O)[C@H](CCCCN)NC(=O)[C@@H](NC(=O)CNC(C)=O)[C@@H](C)O)C(C)C)C(=O)N[C@@H](CC(=O)O)C(=O)N1CCC[C@H]1C(=O)N[C@@H](Cc1ccccc1)C(=O)N[C@H](C(=O)N[C@@H](Cc1ccc(OP(=O)(O)O)cc1)C(=O)N[C@@H](CCC(=O)O)C(=O)N[C@@H](CC(=O)O)C(=O)N1CCC[C@H]1C(=O)N[C@@H](CC(N)=O)C(=O)N[C@@H](CCC(=O)O)C(=O)N[C@@H](C)C(N)=O)[C@@H](C)O
notes: EphB4, UniProt P54760, juxtamembrane residues 586-602; also called pYpY EphB4; pYpYEphB4; source: synthetic peptide, bought: GenScript

What was measured:
Conditions in all cases: both partners purified
[1] = molecular target: T1, RasGAP^2(mut)32 (RasGAP^232 with R207A …); assay: ITC; protein in the 190 ul sample cell, titrated 20 times with 2.5 ul peptide from the syringe; 20 mM Tris pH 8, 250 mM NaCl; Nano ITC (TA Instruments); independent binding model
[2] = molecular target: T2, RasGAP^232(mut) (RasGAP^232 with …); assay: as above
[3] = molecular target: T3, RasGAP^232 (p120RasGAP N-SH2, SH3 and …); assay: as above
[4] = molecular target: T4, RasGAP^232 (p120RasGAP SH2-SH3-SH2 …); assay: ITC; RasGAP^232 protein (WT or mutant) in the 190 µl sample cell, peptide in the syringe, 20 injections of 2.5 µl; 20 mM Tris pH 8, 250 mM NaCl; Nano ITC (TA Instruments); blank (constant) and independent models; values of single trials, averages and stdev
[5] = molecular target: T5, RasGAP^2(mut)32 (RasGAP^232 with R207A …); assay: as above
[6] = molecular target: T6, RasGAP^232(mut) (RasGAP^232 with …); assay: as above

Kd [1] | dH [1] | stoichiometry N [1] | Kd [2] | dH [2] | stoichiometry N [2] | Kd [3] | dH [3] | stoichiometry N [3] | Ka [4] | Kd [4] | stoichiometry N [4] | Ka [5] | Kd [5] | stoichiometry N [5] | Ka [6] | Kd [6] | stoichiometry N [6] | Binder
40000 ± 20000 nM | -7.89 ± 1.43 kcal/mol | 0.9 ± 0.2 | 1000 ± 300 nM | -5.98 ± 0.239 kcal/mol | 0.75 ± 0.02 | 2000 ± 700 nM | -5.74 ± 0.717 kcal/mol | 1 ± 0.1 |  |  |  |  |  |  |  |  |  | B1
 |  |  |  |  |  |  |  |  | 6.3e+07 M⁻¹ and 2.1e+07 M⁻¹ and 4.3e+07 M⁻¹ and 4e+07 M⁻¹ | 16 nM and 47 nM and 23 nM | 0.9 and 0.8 and 0.7 |  |  |  |  |  |  | B2
 |  |  |  |  |  |  |  |  |  | 1300 nM and 1500 nM and 2400 nM and 2700 nM | 0.9 and 1 and 1.1 | 40000 M⁻¹ and 30000 M⁻¹ and 20000 M⁻¹ | 25000 nM and 32000 nM and 60000 nM and 38000 nM | 0.7 and 1 and 0.9 and 1.2 | 900000 M⁻¹ and 700000 M⁻¹ and 1e+06 M⁻¹ | 1100 nM and 1500 nM and 1000 nM and 800 nM | 0.8 and 0.7 | B3

— article PMC10470053, “Diverse p120RasGAP interactions with doubly phosphorylated partners EphB4, p190RhoGAP, and Dok1” (The Journal of Biological Chemistry, 2023)
